Changes are numbered by the printed parent chain.
B1: TM-80 (antibody, V domains shown)
VH: QVQLQQPGAELVKPGASVKLSCKASGYTFTTFWMHWVKQRPGQGLEWIGNIDPSDSETHYNQEFKDKATLTVDRSSNTAYMQLSSLTSEDSAVYYCARSSNWDNFDYWGQGTAVTVSS
VL: DIVMTQAAPSVPVTPGESVSISCRSSQSLLHVNGHTYLYWFLQRPGQSPQLLIYRMSNLASGVPDRFSGSGSGTVFTLRISRVETEDVGIYYCMQHLQYPFTFGSGTKLEIK
B2: TM-54 (antibody, V domains shown)
VH: QVQMQQSGPVLVKPGASVTLSCKASGYTFTTYDLNWVKQRPGQGLEWIGWIYPRGGSTEYNEKFKGKATLTVDTSSSTAYMELHSLTSEDSAVYFCAKYSIYAMDYWGQGTSVTVSS
VL: DVLMTQTPLSLPVSLGDQASISCRSSQSIVHGNGNTYLEWYLQKPGQSPKLLIYKVSNRFSGVPDRFSGSGSGTDFTLKISRVEAEDLGVYYCFQGSHVPWTFGGGTKLEMK
B3: TM-15 (antibody, V domains shown)
VH: QVQLQQPGAEFVRPGASVKLSCKASGYTFTNYWITWVKQRPGHGLEWIGDIYPGSGNSNYNESFKRKATLTVDTSSSTAYMHLSSQTSEDSAVYFCARKAYGGFPYWGQGTLVTVSA
VL: DIQMTQSPASLSVSVGETVTITCRVSENIYNNLAWYQQKQEKSPQLLVFAATNLADGVPSRFSGSGSGTQFSLKINSLQSEDFGTYYCQHFWDTPFTFGSGTKLEIK
B4: TM-5 (antibody, V domains shown)
VH: QVQLQQSGTELARPGASVKVSCKASGYIFTTYGITWVKQRGGQGLEWIGEIYPRSDNTYYNEKFKDKATLTADKSSSTAYMELRSLTSEDSAVYFCARSKGSGTGDYWGQGTTVTVSS
VL: DIQMTQSPASLSASVGETVTITCRASENIYIYLAWYQQKQGKTPQLLVYNGKMLAENVPSRFSGSGSGTQFSLKINSLQPEDFGSYYCQHHYGSPPAFGAGTKLELK
B5: TM-42 (antibody, V domains shown)
VH: QVQLQQSGAELAKPGASVKLSCKASGYTFTNYWMHWVKKRPGQGLEWIGYINPSSGYTKYNQKFKDKATLTADKSSNTAYMQLSSLTYEDSAVYYCTREGGSISDWYFDVWGTGTTVTVSS
VL: B1 VL with V11L, Q27K, V32S, H35N, V75A, T85A, I90V, Q98E, F101Y, S105G
B6: TM-7 (antibody, V domains shown)
VH: EVQLQQSGPVLVKPGPPVKISCKASGFTFTDYYIHWVKLSHGKSLEWIGLVYPYNGDTDYNQKFKGKATLTVDTSSSTAYMELNSLTSEDSAVYYCARTYYANSPDYWGQGTTVTVSS
VL: DIVMTQSPSSLSVSAGEKVTMSCKSSQSLLNSGNQRNYLAWYQQKPGQPPKLLIYGASTRESGVPDRFTGSGSGTDFTLTISNVQAEDLAVYYCQNDHSYPLTFGAGTKLELK
B7: TM-18 (antibody, V domains shown)
VH: EVRLQQSGPELVKPGASVKISCKTSGYTFTDYYMNWVKQSHGKSLEWIVNINPNNGDAFYNQKFKGKATLTVDKSSNTAYLDLRSLTSEDSAVYYCAREGQLRLRRVYAMDYWGQGTSVTVSS
VL: DIVLAQSPASLAVSLGQRATISCRASKSVSISVYTYVHWYQQKPGQPPKLLIYLASNLESGVPARFSGSGSGTDFTLNIHPVEEEDAATYYCQHSRELPYTFGGGTKLEIK
B8: TM-1 (antibody, V domains shown)
VH: QVQLQQSGAELVRPGTSVKVSCKASGYAFTNYLIEWVKQRPGQGLEWIGVINPGSGGTKYNEKLKGKATLTADKSSSTAYMQLSSLTSVDSAVYFCARRGYTIYDFYAMDYWGQGTSVTVSS
VL: B2 VL with Q18H, H31Y, G32N, G96V, W101F, G105S, M111I
B9: TM-51 (antibody, V domains shown)
VH: QVQLQQPGAELVKPGASVKLSCKASGYTFTTYWIDWVKQRPGQGLEWIGNMFPGSSRTNYNEKFKSRATLTVDTSSSTAYMQLSSLTSDDSAVYYCARKEGLWTYGYDGGAWFAYWGQGTLVTVSA
VL: DIVMSQSPSSLAVSVGEKVTMSCKSSQSLRNSRTRKNYLAWYQQKPGQSPKLLIYWASTRESGVPDRFTGSGSGTDFTLTISSVQAEDLAIYYCKQSYNLLTFGAGTKLELK
B10: TM-46 (antibody, V domains shown)
VH: QVQLQQSGADLVKPGASVKISCKASGYAFSSFWMNWVKLRPGKGLEWIGQIYPGDGDTDYNGKFKDKATLTADTSSNTAYMQLSRLTSEDSAVYFCARGDGFSYFDYWGQGTILTVSS
VL: QIVLTQSPVIMSASPGERVTMTCCASSRVNYMHWYQQKSGSYPKRWIYDTSKLASGVPGRFSGSGSGTSYSLTISSMEAEDAATYYCQQWSSNPPTFGGGTKLEIK
B11: TM-77 (antibody, V domains shown)
VH: QIQLQQSGAELVRPGASVKLSCKASGYTFTDYEMHWVKQTPVHGLEWIGVIDPETGGTAYNQMFKGKATLTADKSSSTAYMDLRSLTSEDSAVYYCVKYGIEGYWGQGTTLTVSS
VL: DVVMTQIPLTLSVTLGQPASISCKSSQSLFHSNGKTYLNWLLQRPGQSPKLLIYMVSKLESGVPDRFSGSGSGTDFTLKISRVEAEDLGVYYCLQVTHFPLTFGAGTKLELK
B12: TM-19 (antibody, V domains shown)
VH: DVQLQQSGAELVRPGASVKLSCTASGFNIKDYYMYWVKQRPEQGLEWIGRIDPEDGDTENAPKFRGMATMTADTSSNTAYLQLNSLTSEDTAVYYCTTRIGNLYHVMDYWGHGTSVTVSS
VL: B2 VL with G32S, S48A, Y54D, S57F, W101F, G105S, M111I
B13: TM-79 (antibody, V domains shown)
VH: EVQLQQSGPELVKPGASVKMSCKASGYTFTNYVMHWLKQKPGQGLEWIAHITPHNDGTKYNEKFKGKATLTSDRSSSTAYMELNSLTSEDSAIYYCARSGQFGRGDYFHYWGQGTTVTVSS
VL: DIVLTQSPASLAVSLGQRATISCRASKSVSTSGSIYIHWYQQKPGQPPKLLIYLTSNLESGVPARFSGSGSGTDFTLNIHPVEEEDAATYYCQHSGELPWTFGGGARLEIK
B14: TM-22 (antibody, V domains shown)
VH: QVQLQQSGPELVKPGASVKISCKASGYRFTSYYIHWVKQRPGQGLEWIGWIYPGNGITNYNEKFKGKATLTADTSSSTAYMQLSSLTSEDSAVYYCASPYYGIRNCYFDVWGTGTTVTVSS
VL: B2 VL with Q18H, S26G, G32S, V90I, M111I
B15: TM-26 (antibody, V domains shown)
VH: QVQLQQSGAELIRPGTSVKVSCKASGYAFTNYLIEWVKKRPGQGLEWIGVINPGSGITNYNEKFKGKATLTADKSSSTAYMQLSSLTSEDSAVYFCARSDFITTVVADYWGQGTTVTVSS
VL: DIVVTQTPLSLPVSFGDQVSISCRSSQSLTNYYGNTYLSWYLHKPGQSPQLLIYGISNRFSGVPDRFSGSGSGTDFTLKISTIKPEDLGMYYCLQGTHQPRTFGGGTKLEIK

target: human TMEM106B (human, UniProt Q9NUM4 2-274); test: cell-based or functional assay
Also: test concentration or dose not given here.

First: B1
Second: B2
The “% Protection from CPE” value of the first is higher: 78% for the first, 68.1% for the second.

Compared with B3, B4 is lower in “% Protection from CPE” value: 63.5% for the first, 63.3% for the second.

First: B5
Second: B6
The “% Protection from CPE” value of the first is higher: 28.4% for the first, 15.8% for the second.

First: B7
Second: B8
The “% Protection from CPE” value of the first is higher: 100% for the first, 6.4% for the second.

Compared with B9, B10 is lower in “% Protection from CPE” value: 5.4% for the first, 4.7% for the second.

Compared with B11, B12 is higher in “% Protection from CPE” value: 4.7% for the first, 99.8% for the second.

Compared with B13, B14 is lower in “% Protection from CPE” value: 4.5% for the first, 4.4% for the second.

For B15, the “% Protection from CPE” value was 4.3%.

Source: patent publication US20240166738A1 (Alector, published 2024)
